Literature values in PMC139967 (BMC Biochemistry, 2002).

How the values were obtained:
[1] = tested on: calmodulin
[2] = not given; remark: listed apart in the source

B1: Myo1c: Myosin-1c, previously called myosin-Iβ, myr 2, or MI-110K; literature preparations (protein, UniProt O00159 1-1063, looked up)
Unconventional myosin-Ic: MALQVELVPTGEIIRVVHPHRPCKLALGSDGVRVTMESALTARDRVGVQDFVLLENFTSEAAFIENLRRRFRENLIYTYIGPVLVSVNPYRDLQIYSRQHMERYRGVSFYEVPPHLFAVADTVYRALRTERRDQAVMISGESGAGKTEATKRLLQFYAETCPAPERGGAVRDRLLQSNPVLEAFGNAKTLRNDNSSRFGKYMDVQFDFKGAPVGGHILSYLLEKSRVVHQNHGERNFHIFYQLLEGGEEETLRRLGLERNPQSYLYLVKGQCAKVSSINDKSDWKVVRKALTVIDFTEDEVEDLLSIVASVLHLGNIHFAANEESNAQVTTENQLKYLTRLLSVEGSTLREALTHRKIIAKGEELLSPLNLEQAAYARDALAKAVYSRTFTWLVGKINRSLASKDVESPSWRSTTVLGLLDIYGFEVFQHNSFEQFCINYCNEKLQQLFIELTLKSEQEEYEAEGIAWEPVQYFNNKIICDLVEEKFKGIISILDEECLRPGEATDLTFLEKLEDTVKHHPHFLTHKLADQRTRKSLGRGEFRLLHYAGEVTYSVTGFLDKNNDLLFRNLKETMCSSKNPIMSQCFDRSELSDKKRPETVATQFKMSLLQLVEILQSKEPAYVRCIKPNDAKQPGRFDEVLIRHQVKYLGLLENLRVRRAGFAYRRKYEAFLQRYKSLCPETWPTWAGRPQDGVAVLVRHLGYKPEEYKMGRTKIFIRFPKTLFATEDALEVRRQSLATKIQAAWRGFHWRQKFLRVKRSAICIQSWWRGTLGRRKAAKRKWAAQTIRRLIRGFVLRHAPRCPENAFFLDHVRTSFLLNLRRQLPQNVLDTSWPTPPPALREASELLRELCIKNMVWKYCRSISPEWKQQLQQKAVASEIFKGKKDNYPQSVPRLFISTRLGTDEISPRVLQALGSEPIQYAVPVVKYDRKGYKPRSRQLLLTPNAVVIVEDAKVKQRIDYANLTGISVSSLSDSLFVLHVQRADNKQKGDVVLQSDHVIETLTKTALSANRVNSININQGSITFAGGPGRDGTIDFTPGSELLITKAKNGHLAVVAPRLNSR
- effect of Ca^2+ on in vitro motility: completely halts
- calmodulins per Myo1c after calmodulin supplementation ([1]; calmodulin supplementation): ≤ 4
- calmodulins per Myo1c heavy chain ([1]; purified Myo1c): 2–3
- effect of Ca^2+ on ATPase activity [2]: increases
